In patent publication US20080058272A1 (published 2008):
Like-named read-outs stand apart in the source and are kept apart here.

T1: HLA-A2 (human, UniProt P04439 25-302 at identity 0.94))
T1 chain: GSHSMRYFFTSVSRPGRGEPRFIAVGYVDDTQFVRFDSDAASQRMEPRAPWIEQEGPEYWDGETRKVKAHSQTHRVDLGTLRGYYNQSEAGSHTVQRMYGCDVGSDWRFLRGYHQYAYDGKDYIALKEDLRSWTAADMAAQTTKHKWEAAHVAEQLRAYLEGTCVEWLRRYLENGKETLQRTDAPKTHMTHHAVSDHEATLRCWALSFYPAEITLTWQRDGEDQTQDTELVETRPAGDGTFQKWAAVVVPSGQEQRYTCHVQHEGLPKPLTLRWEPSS


Legend:
[1] = target: T1, HLA-A2; test: competitive binding assay (flow cytometry)
[2] = target: T1, HLA-A2; test: competitive binding assay (flow cytometry)

IC50 [1] [µM] | IC50 [2] [µM] | Binder
5.6 | – | GLFKCGIAV [FAPα^639-647]
9.1 | – | GLSPDRQFV [FAPα^104-112]
15.3 | – | YLASKEGMV [FAPα^560-568]
13.3 | – | LLYAVYRKL [FAPα^584-592]
33.8 | 33.8 | KILEENKEL [FAPα^486-494]
4.7 | 4.7 | ALVCYGPGI [FAPα^463-471]
8 | – | YLESDYSKL [FAPα^113-121]
